B1: Tat: synthetic unacetylated 72-amino acid Tat, sequence derived from isolate HIV-1BRU (peptide)
chain: MEPVDPRLEPWKHPGSQPKTACTTCYCKKCCFHCQVCFTTKALGISYGRKKRRQRRRPPQGSQTHQVSLSKQ
B2: AcTat: synthetic Tat protein (HIV-1BRU sequence, 72 amino acids) containing a single acetylated lysine at position 50 (peptide)
chain: B1 chain

Legend:
[1] = system: TAR-mutant LTR-luciferase, RSV LTR-luciferase, 5×UAS/Gal4-VP16, CMV-GFP, LTR alone in HeLa cells; assay: Microinjection control experiments with Tat-independent reporters; format: cell-based
Description: Microinjection was performed at room temperature with a Zeiss automated injection system (Carl Zeiss, Oberkochen, Germany). Samples were prepared as a 20111 injection mix containing the luciferase reporter constructs (100 ng/ml) and CMV-GFP (50 ng/ml) constructs in sterile water or phosphate buffer. In individual experiments α-AcARM or preimmune immunoglobulins (5 mg/ml), Lys-CoA (8 μM) or synthetic Tat (30 μg/ml) were included in the mix. Four hours after injection, cells were examined on a Zeiss Axiovert microscope to determine the number of GFP-positive cells, washed in cold phosphate buffer and stored at −70° C. for luciferase assays (Promega).
A GFP-expressing construct (CMV-GFP) was coinjected to count the number of injected cells before analysis of luciferase activity.

[2] = system: Tat transactivation of the HIV LTR in HeLa-Tat cells; assay: Nuclear microinjection of HIV LTR-luciferase reporter, Tat transactivation; format: cell-based; conditions: 8 μM solution microinjected into HeLa-Tat cells, three independent experiments
Description: Microinjection experiments were previously described (Dorr et al. (2002), supra). Microinjection was performed at room temperature with a Zeiss automated injection system (Carl Zeiss, Oberkochen, Germany). Samples were prepared as a […] injection mix containing the luciferase reporter constructs (100 ng/ml) and CMV-GFP (50 ng/ml) constructs in sterile water or phosphate buffer. In individual experiments α-AcARM or preimmune immunoglobulins (5 mg/ml), Lys-CoA (8 μM) or synthetic Tat (30 μg/ml) were included in the mix. Four hours after injection, cells were examined on a Zeiss Axiovert microscope to determine the number of GFP-positive cells, washed in cold phosphate buffer and stored at −70° C. for luciferase assays (Promega). The α-p24 monoclonal antibody (183-H12-5C) was used in control microinjections with α-AcARM mAbs and was obtained through the AIDS Research and Reference Reagent Program, NIH (Chesebro et al. (1992) J Virol 66, 6547-6554). […]
FIGS. 3A-D. (FIG. 3A) Microinjection of the p300-HAT inhibitor Lys-CoA (8 μM), HIV LTR-luciferase and CMV-GFP into HeLa or HeLa-Tat cells. Each value is expressed as a percentage of the value obtained in control cells, injected with LTR-luciferase and CMV-GFP alone. […]

[3] = system: p300-dependent transcription of MyoD RNA; conditions: microinjected into nuclei of oocytes; cited from earlier work
[4] = system: Jurkat T cells expressing FLAG-tagged Tat from the HIV LTR; assay: Western blot of lysates of Jurkat T cells expressing FLAG-tagged Tat after TSA; format: cell-based; conditions: 400 nM TSA, 16 hours
Description: Immunoglobulin G were purified on Gammabind Plus Sepharose (Amersham).
Next, cellular extracts were analyzed with anti-AcARM antibodies. A cell line was generated that constitutively expressed a FLAG-tagged Tat protein from the HIV LTR by transducing Jurkat T cells with a Tat-encoding lentiviral vector (Jordan et al., 2001, supra). Following treatment with trichostatin A (TSA), a specific inhibitor of cellular HDACs, AcTat was detected by western blot analysis with anti-AcARM mAbs in cells expressing Tat, but not in control cells expressing GFP (FIG. 1D). To enhance the signal, immunoprecipitation was performed with anti-FLAG monoclonal antibodies before western blot analysis. Again, AcTat was detected in Tat-expressing, but not in GFP control cells (FIG. 1E). Expression of AcTat was enhanced when cells were treated with TSA.

RNAPII = biological target: T1, RNAPII (Homo sapiens, UniProt P24928); assay: RNA polymerase II binding in 293 nuclear extracts; conditions: biotinylated proteins
T1 construct: analyzed with modification-specific antibodies directed against the CTD of RNAPII; endogenous in cells; host or cells: 293 nuclear extract
Description: Synthetic biotinylated nonacetylated and acetylated Tat proteins were incubated for 2 hours with 50 μl 293 nuclear extracts prepared according to (Dignam et al. (1983) Methods Enzymol. 101, 582-598) in buffer conditions described in (Mavankal et al., (1996) Proc. Natl. Acad. Sci. USA 93, 2089-2094). Complexes were collected with streptavidin-sepharose beads, separated by SDS-PAGE electrophoresis and analyzed with α-RNAPII antibodies (clones H14 and 8WG16; CPR Inc) or with α-AcARM mAbs and HRP-conjugated Streptavidin (Jackson Immunoresearch Laboratories).
(§1) FIGS. 4A-D. (FIG. 4A) Bulge-dependent binding of Tat to TAR. Radiolabeled riboprobes corresponding to the HIV TAR element or a mutated form (TARΔBulge) were incubated with 0, 40, 80 and 160 ng of Tat and analyzed on a 4% Tris-glycine gel. (FIG. 4B) High-affinity binding of AcTat to TAR RNA, but […]. The wild-type TAR probe was incubated with increasing amounts of synthetic Tat or AcTat (0, 1.6 ng, 8 ng, 40 ng, and 200 ng) in the absence or presence of recombinant CyclinT1. The same experiment with a mutated TAR RNA probe containing mutations in the apical loop is shown below (TARΔLoop). (FIG. 4C) Binding of AcTat to CyclinT1 in the absence of TAR. Increasing amounts (0, 0.5 μg, 1 μg, and 2 μg) of Tat or AcTat were incubated with GST-CyclinT1, Tat-binding-deficient GST-CyclinT1 (C261A) or GST alone. Bound proteins were analyzed with monoclonal anti-Tat antibodies, directed against the N-terminus of Tat. 50% of input Tat proteins are shown. (FIG. 4D) Binding of Tat and AcTat to RNAPII. Biotinylated Tat or AcTat proteins (0, 1, 2, 4, 8 μg) were incubated with nuclear extracts, precipitated with streptavidin-sepharose and analyzed with modification-specific antibodies directed against the CTD of RNAPII. AcTat was detected with monoclonal anti-AcARM antibodies. Both Tat proteins reacted with horseradish peroxidase-conjugated streptavidin (SA-HRP).

GST-CyclinT1 [5] = biological target: T2, GST-CyclinT1 (Homo sapiens, UniProt O60563, C261A); assay: GST binding (pulldown) assay
T2 construct: Full-length GST-CyclinT1, GST-CyclinT1C261A or GST alone were expressed in the BL21 strain of Escherichia coli; made in house; host or cells: Escherichia coli BL21
T2 sequence (O60563 whole entry C261A): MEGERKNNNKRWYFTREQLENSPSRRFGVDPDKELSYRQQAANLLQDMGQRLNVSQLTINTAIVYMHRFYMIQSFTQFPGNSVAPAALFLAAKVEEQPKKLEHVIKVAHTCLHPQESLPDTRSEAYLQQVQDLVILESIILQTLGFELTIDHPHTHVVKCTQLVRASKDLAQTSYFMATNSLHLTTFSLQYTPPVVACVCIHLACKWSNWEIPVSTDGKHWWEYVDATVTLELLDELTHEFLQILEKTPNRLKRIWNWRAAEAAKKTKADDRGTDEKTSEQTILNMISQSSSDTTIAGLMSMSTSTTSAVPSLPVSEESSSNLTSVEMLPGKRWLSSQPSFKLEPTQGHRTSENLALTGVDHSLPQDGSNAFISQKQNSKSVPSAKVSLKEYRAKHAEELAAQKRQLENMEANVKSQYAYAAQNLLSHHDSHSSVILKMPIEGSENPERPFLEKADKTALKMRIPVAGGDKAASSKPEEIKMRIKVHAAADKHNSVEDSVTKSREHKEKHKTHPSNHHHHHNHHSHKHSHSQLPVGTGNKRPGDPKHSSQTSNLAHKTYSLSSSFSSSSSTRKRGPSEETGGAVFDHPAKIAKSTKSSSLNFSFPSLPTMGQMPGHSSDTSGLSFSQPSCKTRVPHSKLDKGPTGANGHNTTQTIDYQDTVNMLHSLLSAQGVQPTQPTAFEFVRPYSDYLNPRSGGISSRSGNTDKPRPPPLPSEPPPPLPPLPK
Description: (§2) Full-length GST-CyclinT1, GST-CyclinT1C261A or GST alone were expressed in the BL21 strain of Escherichia coli and purified on glutathione-Sepharose beads (Amersham Pharmacia Biotech) as described (Herrmann and Rice (1993) Virology 197, 601-608). For binding assays ˜1 μg of bead-coupled GST-CyclinT1, GST-CyclinT1C261A or GST alone was incubated with Tat and AcTat in 100 μl modified Buffer C for 3.5 hr at 4°. Buffer C is described in (Fujinaga et al. (1999) Proc. Natl. Acad. Sci. USA 96, 1285-1290) and was used without ZnCl2 and SDS. Beads were washed three times with modified Buffer C containing 1M KCl, boiled in Laemmli buffer and supernatant was analyzed by immunoblotting using monoclonal anti-Tat antibodies (clone AC11.AE12; CPR Inc.).
as §1

GST-CyclinT1 [6] = biological target: T3, GST-CyclinT1 (Homo sapiens, UniProt O60563); assay: GST binding (pulldown) assay; conditions: absence of TAR
T3 construct: Full-length GST-CyclinT1, GST-CyclinT1C261A or GST alone were expressed in the BL21 strain of Escherichia coli; made in house; host or cells: Escherichia coli BL21
T3 sequence (O60563 whole entry): as the sequence (O60563 whole entry C261A) above, with A261C counted along it
Description: as §2, §1

Tat/TAR/CyclinT1 complex = biological target: T4, Tat/TAR/CyclinT1 complex (Homo sapiens, UniProt O60563); assay: RNA gel shift with recombinant CyclinT1, ternary complex formation; format: binding; conditions: presence of CyclinT1
T4 construct: 160 ng of GST-cleaved CyclinT1 (amino acids 1-303); GST (N, cleaved yes); made in house
T4 sequence (O60563 1-303, one chain of several): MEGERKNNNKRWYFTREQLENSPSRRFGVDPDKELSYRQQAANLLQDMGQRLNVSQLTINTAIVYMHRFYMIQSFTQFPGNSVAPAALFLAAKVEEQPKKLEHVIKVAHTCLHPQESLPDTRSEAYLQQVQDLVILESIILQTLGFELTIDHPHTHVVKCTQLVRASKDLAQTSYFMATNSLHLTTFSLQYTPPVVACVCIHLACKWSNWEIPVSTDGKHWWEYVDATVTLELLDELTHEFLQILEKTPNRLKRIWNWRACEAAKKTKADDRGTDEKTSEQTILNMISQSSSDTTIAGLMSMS
Description: TAR RNAs were synthesized from HindIII-linearized pGEM3Zf-TAR constructs, which contained an oligonucleotide corresponding to the HIVLAI TAR sequence (nucleotides +17 to +44) ligated into the EcoR1-HindIII cloning sites, downstream of the T7 RNA polymerase start site. In the TARΔbulge construct, thymidine 23 was replaced with an adenosine, and the TARΔloop construct contained C30→A, T31→G, and G33→T mutation. In vitro transcription reactions were performed with the Riboprobe system (Promega, Madison, Wis.) with 1 μg of linearized plasmids and 50 μCi of ^32P-CTP (20 μCi/μl; Amersham Pharmacia Biotech). Transcripts were treated with 2 U DNAse I (Promega), extracted with a phenol:chloroform mixture, and purified over a Nick column (Amersham Pharmacia Biotech). […]
FIGS. 4A-D. (FIG. 4A) Bulge-dependent binding of Tat to TAR. Radiolabeled riboprobes corresponding to the HIV TAR element or a mutated form (TARΔBulge) were incubated with 0, 40, 80 and 160 ng of Tat and analyzed on a 4% Tris-glycine gel. […] Bound proteins were analyzed with monoclonal anti-Tat antibodies, directed against the N-terminus of Tat. […] Biotinylated Tat or AcTat proteins (0, 1, 2, 4, 8 μg) were incubated with nuclear extracts, precipitated with streptavidin-sepharose and analyzed with modification-specific antibodies directed against the CTD of RNAPII. AcTat was detected with monoclonal anti-AcARM antibodies. […]

HIV TAR RNA = assay: RNA gel mobility shift assay; format: binding; conditions: for effect of mutations in the loop of TAR on binding: TARΔLoop probe; for binding to wild-type TAR RNA: absence of CyclinT1; for effect of addition of CyclinT1 on affinity for wild-type TAR RNA: recombinant CyclinT1 present
Description: TAR RNAs were synthesized from HindIII-linearized pGEM3Zf-TAR constructs, which contained an oligonucleotide corresponding to the HIVLAI TAR sequence (nucleotides +17 to +44) ligated into the EcoR1-HindIII cloning sites, downstream of the T7 RNA polymerase start site. In the TARΔbulge construct, thymidine 23 was replaced with an adenosine, and the TARΔloop construct contained C30→A, T31→G, and G33→T mutation. In vitro transcription reactions were performed with the Riboprobe system (Promega, Madison, Wis.) with 1 μg of linearized plasmids and 50 μCi of ^32P-CTP (20 μCi/μl; Amersham Pharmacia Biotech). Transcripts were treated with 2 U DNAse I (Promega), extracted with a phenol:chloroform mixture, and purified over a Nick column (Amersham Pharmacia Biotech). Gel mobility reactions (final volume, 16 μl) were carried out at 30° C. as described (Wei et al. (1998) Cell 92, 451-462) with 2×10^4 cpm TAR probes/reaction with indicated concentrations of Tat proteins and 160 ng of GST-cleaved CyclinT1 (amino acids 1-303) (Garber et al. (1998) Curr Opin Immunol 11, 460-465). RNA-binding complexes were separated on a pre-run 4% Tris-glycine gel.
as §1

Row | Molecule | effect on the LTR alone ([1]; coinjected into HeLa cells (no Tat)) | effect on coinjected CMV-GFP reporter ([1]; same concentration (8 μM)) | inhibition of Tat activity on the HIV LTR [2] | p300-dependent transcription of MyoD RNA [3] | Tat expression (anti-FLAG immunodetection) [4] | expression of AcTat ([4]; anti-FLAG immunoprecipitation, anti-AcARM blot) | binding to nonphosphorylated RNAPII (RNAPII) | binding to mutant CyclinT1 (C261A) or GST alone (GST-CyclinT1 [5]) | binding to wild-type GST-CyclinT1 (GST-CyclinT1 [6]) | formation of the Tat/TAR/CyclinT1 ternary complex (Tat/TAR/CyclinT1 complex) | binding to bulge-mutant TAR RNA (HIV TAR RNA; TARΔBulge probe) | effect of mutations in the loop of TAR on binding (HIV TAR RNA) | binding to wild-type TAR RNA (HIV TAR RNA) | effect of addition of CyclinT1 on affinity for wild-type TAR RNA (HIV TAR RNA) | interaction with hyperphosphorylated RNAPII complex (RNAPII) | concentration at which retarded bands form, relative to unacetylated Tat (HIV TAR RNA; wild-type TAR probe)
1 | CC(=O)N[C@@H](CCCCNC(=O)CSCCNC(=O)CCNC(=O)[C@H](O)C(C)(C)COP(=O)(O)OP(=O)(O)OC[C@H]1O[C@@H](n2cnc3c(N)ncnc32)[C@H](O)[C@@H]1OP(=O)(O)O)C(N)=O [Lys-CoA] | no effect | no effect | 60-70% | efficiently blocked |  |  |  |  |  |  |  |  |  |  |  | 
2 | CC(/C=C/C(=O)NO)=C\[C@@H](C)C(=O)c1ccc(N(C)C)cc1 [TSA, trichostatin A] |  |  |  |  | overall upregulation | enhanced |  |  |  |  |  |  |  |  |  | 
3 | B1 |  |  |  |  |  |  | no binding | Neither Tat nor AcTat bound | equal affinities | formed the expected Tat/TAR/CyclinT1 complex | blocked | little effect | high affinity | did not alter |  | 
4 | B2 |  |  |  |  |  |  | no binding | Neither Tat nor AcTat bound | equal affinities | could not |  | little effect | affinities equal to that of unacetylated Tat | did not alter | higher affinity than Tat | one-third

Reference: US7482016B2, “Immunogenic compositions comprising HIV-1 acetylated Tat polypeptides” (The J. David Gladstone Institutes, priority 2003, dated 2009)
